# Measured values as given in PMC10244618.
# Where “and” joins values, the source holds several entries; their conditions need not be identical. Identical values can stand only once.
# B1: NF2 (merlin) isoform 7, human, full length (507 aa, lacks exons 2-3 = isoform-1 residues 39-121; exon-16 C-terminus), P35240-4 (parent)
# chain: MAGAIASRMSFSSLKRKQPKTFTVRIVTMDAEMEFNCEVKKQILDEKIYCPPEASVLLASYAVQAKYGDYDPSVHKRGFLAQEELLPKRVINLYQMTPEMWEERITAWYAEHRGRARDEAEMEYLKIAQDLEMYGVNYFAIRNKKGTELLLGVDALGLHIYDPENRLTPKISFPWNEIRNISYSDKEFTIKPLDKKIDVFKFNSSKLRVNKLILQLCIGNHDLFMRRRKADSLEVQQMKAQAREEKARKQMERQRLAREKQMREEAERTRDELERRLLQMKEEATMANEALMRSEETADLLAEKAQITEEEAKLLAQKAAEAEQEMQRIKATAIRTEEEKRLMEQKVLEAEVLALKMAEESERRAKEADQLKQDLQEAREAERRAKQKLLEIATKPTYPPMNPIPAPLPPDIPSFNLIGDSLSFDFKDTDMKRLSMEIEKEKVEYMEKSKHLQEQLNELKTEIEALKLKERETALDILHNENSDRGGSSKHNTIKKPQAQGRRPICI
# Variants of: B1
# Assay: reverse yeast two-hybrid deep mutational scan (rY2H-seq): NF2 isoform 7 mutant library as bait mated with wild-type prey strains; selection on medium lacking adenine for non-interacting pairs; NextSeq paired-end sequencing; enrichment vs …
# Settings: with EMILIN1 (elastin microfibril interfacer 1), Q9Y6C2; yeast diploids after mating (RBait_S3 x RPrey_S3), 30 °C, selection for reporter genes on NB agar; human ABL2 co-expressed as the kinase-dead K35M mutant …; HIGHER = WEAKER BINDING (the opposite of display enrichments): higher = stronger loss of interaction: reverse Y2H selects yeast in which bait and prey do NOT interact (growth without adenine), so a …; hits-only table; scale: rY2H score; numbering: uniprot, sequence starts at 1
row,Variant,enrichment
1,A365E,2.64
2,L353W,1.51
3,L353T,8.41
4,H491K,1.7
5,H491N,1.59
6,H491A,5.29
7,I507R,1.52
8,R471E,8.81
9,F415K,2.05
10,N457L,3.83
11,G419A,1.71
12,G419V,2.41
13,G419K,1.49
14,I412L,2.06
15,I412A,2.67
16,E382K,2.77
17,E382G,1.92
18,L371K,2.05
19,P400A,2.14
20,S483A,2.27
21,D374K,2.38
22,I463A,5.41
23,N482K,2.14
24,L390W,1.53
25,L417K,1.65
26,N402T,1.9
27,D484A,2.01
28,D484L,2.38

row,Variant,enrichment
1,T429L,1.9
2,E367L,6.79
3,E367A,1.72
4,A381K,4.94
5,Q373Y,2.52
6,Q373A,2.83 and 2.82
7,Q373E,3.3
8,H479E,3.67
9,P399E,3.23
10,I418K,1.67
11,I418L,6.81
12,I418W,16.4
13,P403R,5.14
14,Y398F,1.39 and 2
15,Y398A,1.36
16,Y398L,1.89
17,Y398E,8.39
18,A368K,3.84 and 3.98
19,P497L,2.21
20,E360G,2.14
21,E360K,3.02
22,A350K,1.95
23,R384A,2.36
24,G486K,3.4
25,T394L,5.41
26,L375E,3.04
27,M357K,2.48

# Same assay, conditions: with EMILIN1 (elastin microfibril interfacer 1), Q9Y6C2; yeast diploids after mating (RBait_S3 x RPrey_S3), 30 °C, selection for reporter genes on NB agar; human tyrosine kinase ABL2 co-expressed as the active kinase …; HIGHER = WEAKER BINDING (the opposite of display enrichments): higher = stronger loss of interaction: reverse Y2H selects yeast in which bait and prey do NOT interact (growth without adenine), so a …; hits-only table; scale: rY2H score; numbering: uniprot, sequence starts at 1
row,Variant,enrichment
1,A365E,4.87
2,P98L,1.71
3,D162P,2.72
4,D299L,3.97 and 2.17
5,D299T,1.88
6,A240T,1.45
7,H491A,2.04
8,E337A,1.89
9,L314N,18.6
10,R471E,3.88
11,H159L,2.93
12,E123D,1.52
13,A266K,9.16
14,D271L,2.2
15,I412A,3.34
16,E382K,1.79 and 2.41
17,L371A,2.9 and 1.56
18,L371E,3.71
19,L371K,2.49
20,R268E,8.98 and 8.09
21,L150A,2.56
22,L348K,2.78

row,Variant,enrichment
1,R258V,2.52
2,S483A,3.86 and 4.2
3,E252K,1.41
4,E377A,4.03
5,A107E,6.39
6,Q317R,1.98
7,D198N,1.92
8,E367L,1.94
9,E367K,1.96
10,E367A,3.25
11,S55L,2.05
12,Q261Y,2.07
13,R335E,2.52
14,R335C,2.88
15,A247K,4.58
16,E259K,3.41
17,R248P,1.52
18,R248K,1.55
19,A381V,1.43
20,A381M,5.46
21,A381L,1.87
22,A381K,10.4

row,Variant,enrichment
1,A381E,1.42
2,A381T,1.45
3,Q373Y,3.17
4,P174R,4.14
5,V39G,1.41
6,K330A,2.6
7,P399E,1.72
8,P403R,3.53
9,Y398F,1.38 and 1.78
10,Y398L,2.45
11,Y398E,15.7
12,L58P,6.14
13,K170L,4.44
14,I307L,3.37
15,I307Y,2.93
16,V209A,5.24
17,P497L,2.34
18,S73L,1.58 and 3.38
19,S73K,2
20,G146A,3.91 and 4.27
21,V56K,3.86
22,D69K,1.87

row,Variant,enrichment
1,A350K,4.8 and 3.36
2,A350E,5.83
3,E362K,4.17
4,S13F,1.87
5,L151E,15.6
6,T285L,2.39 and 4
7,M326R,1.39
8,T332E,4.23 and 3.34
9,T332S,2.08
10,T332A,4.79
11,L375K,4.18
12,L375E,6.55
13,L375A,4.49
14,A319L,2.38 and 3.16
15,T189I,1.59
16,L300K,8.53
17,L300C,2.3
18,L300R,3.24
19,Q376K,2.11

# Same assay, conditions: with KDM1A (lysine-specific histone demethylase 1A; the table's label AOF2 is a gene synonym of KDM1A), O60341; yeast diploids after mating (RBait_S3 x RPrey_S3), 30 °C, selection for reporter genes on NB agar; human ABL2 co-expressed as the kinase-dead K35M mutant …; HIGHER = WEAKER BINDING (the opposite of display enrichments): higher = stronger loss of interaction: reverse Y2H selects yeast in which bait and prey do NOT interact (growth without adenine), so a …; hits-only table; scale: rY2H score; numbering: uniprot, sequence starts at 1
row,Variant,enrichment
1,A365E,11.9 and 4.42
2,D299L,3.02 and 4.36
3,L353W,1.6
4,E123D,1.75
5,F415K,1.8 and 3.49
6,D271L,4.25
7,R268E,8.2 and 3.3
8,L348K,3.09
9,S483A,2.24
10,Q373A,7.31 and 3.66
11,Q373E,2.85
12,K330A,1.85
13,P399E,1.77 and 4.25
14,I418K,1.67
15,I418L,6.54
16,I418W,19.8
17,Y398F,1.87
18,L58P,7.73
19,A368K,10.5 and 10.2
20,I307L,2.24 and 1.83
21,V56K,8.67
22,E360G,1.54
23,T394L,13.8
24,T332E,7.44
25,T332A,1.86 and 5.52
26,A319L,4.6

# Same assay, conditions: with NF2 C-terminal domain (wild type; homomeric NF2-NF2 interaction), P35240; yeast diploids after mating (RBait_S3 x RPrey_S3), 30 °C, selection for reporter genes on NB agar; human ABL2 co-expressed as the kinase-dead K35M mutant …; HIGHER = WEAKER BINDING (the opposite of display enrichments): higher = stronger loss of interaction: reverse Y2H selects yeast in which bait and prey do NOT interact (growth without adenine), so a …; hits-only table; partner unresolved; scale: rY2H score; numbering: uniprot, sequence starts at 1
row,Variant,enrichment
1,A365E,4.53
2,D299L,3.22
3,H491K,2.48
4,I507R,2.16
5,E382K,1.47 and 2.48 and 1.86
6,L371A,2.88
7,R258V,1.38
8,A381T,1.6
9,Q373E,1.81
10,P174R,4.82
11,P399E,1.43
12,Y398E,3.87 and 6.52
13,L58P,2.09
14,A368K,5.98
15,P497L,2.98
16,S73L,3.01
17,R384A,2.38
18,G486K,5.67
19,T394L,9
20,T332A,2.4
21,L375K,6.66
22,L375E,2.55 and 4.04
23,L300C,2.18

# Same assay, conditions: with KDM1A (lysine-specific histone demethylase 1A; the table's label AOF2 is a gene synonym of KDM1A), O60341; yeast diploids after mating (RBait_S3 x RPrey_S3), 30 °C, selection for reporter genes on NB agar; human tyrosine kinase ABL2 co-expressed as the active kinase …; HIGHER = WEAKER BINDING (the opposite of display enrichments): higher = stronger loss of interaction: reverse Y2H selects yeast in which bait and prey do NOT interact (growth without adenine), so a …; hits-only table; scale: rY2H score; numbering: uniprot, sequence starts at 1
row,Variant,enrichment
1,D299L,4.23
2,H159L,4.15 and 7.93
3,A266K,2.16
4,G419A,1.44
5,R268E,7.56
6,L417K,2.29
7,D484L,4.48
8,E367A,4.1 and 4.23
9,R335C,1.78 and 2.82
10,A381K,6.12
11,K330A,4.79
12,P399E,2.45
13,Y398F,2.06
14,Y398A,3.19
15,L58P,4.64 and 3.28
16,I307L,4.9
17,P497L,5.64
18,D69K,6.13
19,T332A,2.16
20,L375E,2.39
21,L375A,3.07

# Same assay, conditions: with PIK3R3 (phosphatidylinositol 3-kinase regulatory subunit gamma), Q92569; yeast diploids after mating (RBait_S3 x RPrey_S3), 30 °C, selection for reporter genes on NB agar; human tyrosine kinase ABL2 co-expressed as the active kinase …; HIGHER = WEAKER BINDING (the opposite of display enrichments): higher = stronger loss of interaction: reverse Y2H selects yeast in which bait and prey do NOT interact (growth without adenine), so a …; hits-only table; scale: rY2H score; numbering: uniprot, sequence starts at 1
row,Variant,enrichment
1,H159L,6.72
2,F415K,2.73
3,I412L,2.03
4,L371A,1.38
5,R268E,11.6
6,R258V,1.6
7,D374K,5.15
8,L417K,1.72
9,A107E,6.23
10,E367A,2.99
11,A381V,1.6
12,A381M,8.42
13,Q373A,4.51
14,P403R,3.96
15,Y398L,1.96
16,L58P,6.79 and 6.06
17,S73L,5.98
18,S73K,3.5 and 2.86
19,V56K,3.28
20,G486K,10.3
21,T285L,6.05
22,T394L,9.86
23,L375K,5.19
24,L375E,3.17
